In paper PMC2001758:

Target: high affinity saturable binding sites for LDL on the human non-small cell lung tumour line L-DAN (LDL-receptors) (human (endogenous in L-DAN)) (UniProt P01130)
Assay: radioligand binding; 125I-labelled LDL on cells of the human non-small cell lung tumour line L-DAN; saturable binding

Chain of high affinity saturable binding sites for LDL on the human non-small cell lung tumour line L-DAN (LDL-receptors) (human (endogenous in L-DAN)) (P01130 22-860): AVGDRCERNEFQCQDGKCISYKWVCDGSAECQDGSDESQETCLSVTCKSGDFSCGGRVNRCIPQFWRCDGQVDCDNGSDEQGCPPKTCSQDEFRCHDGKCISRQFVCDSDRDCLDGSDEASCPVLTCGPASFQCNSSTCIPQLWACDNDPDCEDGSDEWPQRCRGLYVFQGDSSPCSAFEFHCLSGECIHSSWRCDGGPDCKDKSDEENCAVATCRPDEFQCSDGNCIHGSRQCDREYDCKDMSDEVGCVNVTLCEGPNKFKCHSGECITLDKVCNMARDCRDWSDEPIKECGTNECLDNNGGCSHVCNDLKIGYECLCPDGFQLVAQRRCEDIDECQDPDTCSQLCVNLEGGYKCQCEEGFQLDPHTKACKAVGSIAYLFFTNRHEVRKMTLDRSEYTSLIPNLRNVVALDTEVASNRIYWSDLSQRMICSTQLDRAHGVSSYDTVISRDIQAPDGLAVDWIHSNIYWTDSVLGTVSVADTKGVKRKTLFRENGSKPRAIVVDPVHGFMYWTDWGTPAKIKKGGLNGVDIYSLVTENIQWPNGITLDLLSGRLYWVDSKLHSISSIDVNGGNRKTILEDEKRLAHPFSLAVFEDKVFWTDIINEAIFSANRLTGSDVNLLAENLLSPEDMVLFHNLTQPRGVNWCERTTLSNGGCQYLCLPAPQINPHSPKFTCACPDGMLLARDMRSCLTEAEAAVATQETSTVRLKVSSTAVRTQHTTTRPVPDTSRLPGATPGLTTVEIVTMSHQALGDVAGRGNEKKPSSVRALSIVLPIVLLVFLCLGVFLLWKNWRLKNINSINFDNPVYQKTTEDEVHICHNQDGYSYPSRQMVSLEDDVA

Q: How did the Km (p ml ' (as printed, garbled)) turn out when “low density lipoprotein (LDL) (from UniProt P04114 28-4563)” was run?
A: Its Km (p ml ' (as printed, garbled)) is 40.
